The record followed here is patent US7029700B2, “Micronized freeze-dried particles” (Brown University Research Foundation, priority 2000, dated 2006).

Series [1] can be described thus: hGH aggregation during FLM, SEC-HPLC. In kind it is physicochemical. An excerpt: This frozen emulsion was then lyophilized for 48 hrs to remove both the aqueous and organic solvent.
For orientation: Size exclusion chromatography separates by hydrodynamic size, large species first.

Series [2] can be described thus: Oral GH delivery, serum hGH by ELISA. Type of series: in vivo. The note with it: rats, single oral dose by gavage in corn oil. As to the method:
CD male rats (250 to 300 g) were obtained from Charles River Laboratories. Group 1 was fed 1.24 mg of stock GH emulsified in 1 ml of USP corn oil; Group 2 was fed 50 mg of PIN microspheres (2B43099-2.47% Zn-GH in PLGA) in 1 ml of corn oil; Group 3 was fed 50 mg of PIN microspheres (2B51799 - 2.47% Stock GH, 16% FeO in PLGA) in 1 ml of corn oil. Microspheres were suspended in corn oil by vortexing followed by brief (5 s) probe sonication. Stock GH was similarly emulsified in corn oil by vortexing and probe sonication. Animals were fasted overnight, briefly anesthetized with methoxyfluorane, and formulations fed via gavage with an 18-G stainless steel feeding tube and serum from all animals obtained according to the following schedule: −1 hr (pre-feeding control), 0.5 hr, 1 hr, 2 hr, 3 hr, 4 hr, 6 hr, 24 hr, 48 hr, and 72 hr post-feeding. Serum samples obtained via tail bleeding were analyzed for hGH using the hGH specific ELISA (DSL Inc, Webster. Tex.) according to manufacturer's protocols.

For the substance “hGH: Stock human growth hormone (20 mg/ml) incorporated into PLGA 50:50 by FLM under varied conditions”, the “aggregation of best formulation combination” value in series [1] (ethyl acetate, stock GH containing 0.2% F127, agitation time 15 s) is 0.7%. Moreover, the “Percent Aggregation (SEC-HPLC)” value in series [1] (ethyl acetate, 15 s vortex, 0.05% F127 + T20, 24 hr) is 1.9%; in series [1] (ethyl acetate, 15 s vortex, 0.2% F127 + T20, 1 hr), 1.0/1.0%; in series [1] (ethyl acetate, 15 s vortex, 0.2% F127 + T20, 24 hr), 1.0/1.0%; in series [1] (ethyl acetate, 15 s vortex, 0.2% F127, 1 hr) it was 0.7/0.7%; in series [1] (ethyl acetate, 15 s vortex, 0.2% F127, 24 hr), 0.7/0.7%; in series [1] (ethyl acetate, 60 s vortex, 0.05% F127 + T20, 1 hr), 0.9%. The “Percent Aggregation (SEC-HPLC)” value in series [1] (ethyl acetate, 60 s vortex, 0.05% F127 + T20, 24 hr) is 1.0%; in series [1] (ethyl acetate, 60 s vortex, 0.05% F127, 24 hr), 2.0%; in series [1] (ethyl acetate, 60 s vortex, 0.2% F127 + T20, 1 hr), 1.1/1.1%; in series [1] (ethyl acetate, 60 s vortex, 0.2% F127 + T20, 24 hr) it was 1.1/1.1%; in series [1] (ethyl acetate, 60 s vortex, 0.2% F127, 1 hr), 1.5%; in series [1] (ethyl acetate, 60 s vortex, 0.2% F127, 24 hr), 1.7%. The “Percent Aggregation (SEC-HPLC)” value in series [1] (methylene chloride, 15 s vortex, 0.05% F127 + T20, 1 hr) stood at 2.2%; in series [1] (methylene chloride, 15 s vortex, 0.05% F127 + T20, 24 hr), 2.7%; in series [1] (methylene chloride, 15 s vortex, 0.05% F127, 1 hr) it was 2.0%; in series [1] (methylene chloride, 15 s vortex, 0.05% F127, 24 hr), 4.5%; in series [1] (methylene chloride, 15 s vortex, 0.2% F127 + T20, 1 hr), 3.7%; in series [1] (methylene chloride, 15 s vortex, 0.2% F127 + T20, 24 hr) it was 8.8%. In addition, the “Percent Aggregation (SEC-HPLC)” value in series [1] (methylene chloride, 15 s vortex, 0.2% F127, 1 hr) was determined as 2.4%; in series [1] (methylene chloride, 15 s vortex, 0.2% F127, 24 hr), 5.0%; in series [1] (methylene chloride, 60 s vortex, 0.05% F127 + T20, 1 hr), 4.4%; in series [1] (methylene chloride, 60 s vortex, 0.05% F127 + T20, 24 hr), 11.4%; in series [1] (methylene chloride, 60 s vortex, 0.05% F127, 24 hr), 4.8%; in series [1] (methylene chloride, 60 s vortex, 0.2% F127 + T20, 1 hr) it was 10.2%. Further, the “Percent Aggregation (SEC-HPLC)” value in series [1] (methylene chloride, 60 s vortex, 0.2% F127 + T20, 24 hr) is 12.9%; in series [1] (methylene chloride, 60 s vortex, 0.2% F127, 1 hr) it was 4.2%; in series [1] (methylene chloride, 60 s vortex, 0.2% F127, 24 hr) it was 7.0%.

On to “stock GH: 1.24 mg of stock GH emulsified in 1 ml of USP corn oil”, for which the “serum hGH Cmax” value in series [2] is 3.37 ± 2.14 ng/mL.
